Reference: patent publication US20240239875A1 (published 2024)
Read-outs that look alike come from different tables or passages of the source.

Experiments:
Experiment in all cases: ELISA
[1] = target: T1, SARS-CoV-2 prefusion stabilized trimer protein (WIV02 isolate spike protein) (UniProt P0DTC2 14-1213)
[2] = target: SARS-CoV-2 receptor binding domain (UniProt P0DTC2 319-541)
[3] = target: T1, SARS-CoV-2 prefusion stabilized trimer …; remark: listed apart in the source

Binder	EC50 [1]	EC50 [2]	EC50 [3]
4-L4-A (antibody, V domains shown) VH: QAYLQQSGAELVRPGASVKMSCKASGYTFTSYTVHWVKQTPRQGLEWIGGIYPGNVDTSYNQNFKGKATLTVDKSSSTAYMQLSSLTSEDSAVYFCARDGYYAMDYWGQGTSVTVSS VL: not shown	0.37 nM	0.22 nM	
10-I12-A (antibody, V domains shown) VH: RVQLQQSGPELVRPGTSVKISCKASGYTFTDSYINWVTQRPGQGLDWIGWIFPGNDNTYYNEKFEGKATLTLDKSSSTAYMLLSSLTSEDSAVYFCARSGGLRLGFAYWGQGTLVTVSA VL: NIVLTQSPASLAVSRGQRATISCRASESVDSYGHSFIHWYQQKPGQPPKILIYLASKLESGVPARFSGSGSRTDFTLTIDPVEADDAATYYCQQNNEDPWTFGGGTKLEIK	64.4 nM		64.4 nM
4-A15-A (antibody, V domains shown) VH: QVQLQQSGAELVKPGASVKISCKASGNAFSSYWMNWVKQRPGKGLEWIGQIYPGDGDTNFNGRFKGKATLTADISSTTAYMLLSSLTSEDSAVYFCASGGYGSSYERDFDYWGQGTTLTVSS VL: DIQMNQSPSSLSASLGDTITITCHASQNINVWLSWYQQKPGNIPKLLIYKASNLHTGVPSRFSGSGSGTGFTLTISSLQPEDIATYYCQQGHSYPLTFGGGTKLEIK	0.33 nM		0.34 nM
4-M3-A (antibody, V domains shown) VH: EVQLQQSGPELVKPGDSVKISCKASGYSFTGYFMNWVMQSHGKSLEWIGRINPNNGETFYNQKFKGKATLTVDKSSDTAHMELRSLTSEDSAVYYCARGGTGTGWGQGTTLTVSS VL: DILMTQSPSSMSVSLGDTVSITCHASQGISSNIGWLQQKPGKSFKGLIYYGTNLEDGVPSRFSGSGSGADYSLTISSLESEDLADYYCIQYAQFPYTFGGGTKLEIK	1.94 nM	0.26 nM	
7-N20-A (antibody, V domains shown) VH: QVQLVETGGGLVRPGNSLKLSCVTSGFTFSNYRMHWLRQPPGKRLEWIGIITDKSDNYGANYAESVKGRFAISRDDSKSSVYLEMKRLREEDTATYFCSRDGYDWYFDLWGTGTTVTVSS VL: DIVMTQSHKFMSTSVGDRVRITCKASQDVGIVVAWYQQKPGQSPKLLIYWASTRHTGVPDRFTGSGSGTDFTLTISNVQSEDLADYFCQQYSSYPTFGGGTKLEIK	0.24 nM		
4-K16-A (antibody, V domains shown) VH: QIQLVQSGPELKKPGETVKISCKASGYTFTTYGMSWVKQAPGKGLKWMGWMSTYSGVPTYADDFKGRFAFSLETSASTAYLQINNLKNEDTATYFCASGDVGYWGQGTTLTVSS VL: DIVMTQSQKFMSTSVGDRVSVTCKASQNVGTNVAWYQQKPGQSPKALIYSASYRYSGVPDRFTGSGSGTDFTLTISTVQSEDLAEYFCQQYNIYPSTFGGGTKLEIK	1.04 nM		1.01 nM
8-H5-A (antibody, V domains shown) VH: QVTLKESGPGILQSSQTLSLTCSLSGFSLSTSGMGVSWVRQPSGKGLEWLAHIYWDDDKRYTPSLKSRLTISTDSSRKQVFLKITSVDTADTATYYCARRDLHDYDGWFAYWGQGTLVTVSA VL: DIVMTQSQKFMSTAVGDRVSVTCKASQNVGTNVAWYQQKPGQSPKALIYSASFRYSGVPDRFSGSGSGTDFTLTISNVQSEDLAEYFCQQYNSYPLTFGSGTKLEIK	0.08 nM	0.13 nM	
5-H22-A (antibody, V domains shown) VH: QVQLQQSGAELVRPGASVTLSCKASGYTFTDYEMHWMKQTPVHGLEWIGAIDLETGGTVYNQKFKGKAILTADKSSNTAYMALRSLTSEDSAVYYCTREFPHYYGSRYGFPYWGQGTLVTVSA VL: QIVLTQSPAIMSASPGEKVTITCSASSSVSYMHWLQQKPGTSPKLWIYSTSNLASGVPARFSGSGSGTSYSLTISRMEAEDAATYYCQQRSSYPYTFGGGTKLEIK	75.5 nM	166 nM	18.5 nM
3-E2-A (antibody, V domains shown) VH: EVQLQQSGPELVKPGASVKISCKASGYTFTDYYMNWVKQSHGKSLEWIGDINPNNGGTSYTQKFKGKATLTVDKSSSKAYMELRSLTSEDSAVYYCARRGDGHYGGFTYWGQGTLVTVSA VL: not shown	0.87 nM	0.8 nM	
2-O12-A (antibody, V domains shown) VH: EVQLQQSGPELVKPGASVKISCKASGYTFTDYYMNWVKQSHGKSLEWIGDINSNNGGTTYDQKFKGKATLTVDRSSSTAYMELRSLTSEDSAVYYCARRGDGHFGGFTYWGQGTLVTVSA VL: not shown	0.84 nM	0.22 nM	
10-L24-A (antibody, V domains shown) VH: EVQLQQSGPELVKPGASVKISCKASGYTFTDYYMNWVKQSHGKSLEWIGDINSNNGGTTYDQKFKGKATLTVDRSSSTAYMELRSLTSEDSAVYYCARRGDGHFGGFTYWGQGTLVTVSA VL: not shown	0.92 nM	0.31 nM	
9-K4-A (antibody, V domains shown) VH: QAYLQQSGAELVRPGASVKMSCKASGYTFPNYSFHWVKQTPRQGLEWIGAIYPGNDDTSYNQRFKGKATLTVDKSSSTAYMQLSSLTSEDSAVYFCARDYSNYPFDCWGQGTTLTVSS VL: DIVLTQSPASLAVSLGQRATISCRASKSVSTSGYSYMHWYQQKPGQPPKLLIYLASNLESGVPARFSGSGSGTDFTLNIHPVEEEDAATYYCQHSRELPPTFGGGTKLEIK	1.13 nM	0.73 nM	
10-O24-A (antibody, V domains shown) VH: QAYLQQSGAELVRPGASVKMSCKASGYTFTSYSMHWVKQTPRQGLEWIGAIYPGNDDTSYNQKFKGKATLTVDRSSSTAYMQLSSLTSEDSAVYFCTRDYSNYPFDYWGQGTTLTVSS VL: DIVLTQSPASLAVFLGQRATISCRASKSVSTSGYSYMHWYQQRPGQPPKLLIYLASNLESGVPARFSGSGSGTDFTLNIHPVEEEDAATYYCQHSRELPPTFGGGTKLEIK	1.07 nM	3.07 nM	
10-L12-A (antibody, V domains shown) VH: QAYLQQSGAELVRPGASVKMSCKASGYTFTSYSMHWVKQTPRQGLEWIGAIYPGNGDTSYNQKFKGKATLTVDKSSSTAYMQLSSLTSEDSAVYFCTRDYSNYPFDYWGQGTTLTVSS VL: DIVLTQSPASLAVSLGQRATISCRASKSVSTSGYSYLHWYQQKPGQPPKLLIYLASNLESGVPARFSGSGSGTDFTLNIHPVEEEDAATYYCQHSRELPPTFGGGTKLEIK	0.11 nM	0.13 nM	
2-H7-A (antibody, V domains shown) VH: QAYLQQSGAELVRPGASVKMSCKASGYTFTGYTMHWVKQTPRQGLEWIGAIYPENGDTSYNQKFKGKATLTVDKSSSTAYMQLSSLTSEDSAVYFCARDGYDVLYGMDYWGQGTSVTVSS VL: DIVLTQSPASLAVSLGQRATISCRASKSVSTSGYSYMHWYQQKPGQPPKLLIYLASNLESGVPARFSGSGSGTDFTLNIHPVEEEDAATYYCQHSRELPWTFGGGTKLDIK	0.13 nM	0.08 nM	
3-P7-A (antibody, V domains shown) VH: QAYLQQSGAELVRPGASVKMSCKASGYTFTSYSMHWVKQTPRQGLEWIGAIYPGNDDTSYNQKFKGKATLTVDKSSSTAYMQLSSLTSEDSAVYFCTRDYTNYPFDYWGQGTTLTVSS VL: DIVLTQSPASLPVSLGQRATISCRASKSVSTSGYSYMHWYQQRPGQPPKLLIYLASNLESGVPARFSASGSGTDFTLNIHPVEEEDAATYYCQHSRELPPTFGGGTKVEIK	38.1 nM	2.93 nM	
5-P24-A (antibody, V domains shown) VH: QAYLQQSGAELVRPGASVKMSCKASGYTFTSYSMHWVKQTPRQGLEWIGAIYPGNGDTSYTQKFKGKATLTVDKSSSTAYMQLSSLTSEDSAVYFCARDYSNYPFDYWGQGTTLTVSS VL: not shown	0.29 nM	0.12 nM	
8-H3-A (antibody, V domains shown) VH: EVQLVESGGGLVQPKGSLKLSCAASGFTFNTYAMHWVRQAPGKGLEWVARIRSKSSNYATYYADSVKDRFTISRDDSQSMLYLQMNNLKTEDTAMYYCVRDHDYYGSSYWFTYWGQGTLVTVSA VL: DVVMTQTPLSLPVSLGDQASISCRSSQSLVHDNGNTYLHWFLQKPGQSPKLLIYKVSNRFSGVPDRFSGSGSGTDFTLKISRVETEDLGVYFCSQSTHVPWTFGGGTKLEIK	0.27 nM	0.19 nM	
7-B10-A (antibody, V domains shown) VH: EVQLVESGGGLVQPKGSLKLSCAASGFTFNTYAMHWVRQAPGKGLEWVARIRSKSSNYARYYADSVKDRFTISRDESQSMLYLQMNNLKTEDTAMYYCVRDHDYYGSSYWFAYWGQGTLVTVSA VL: DVVMTQTPLSLPVSLGDQASISCSSSQSLVHNNGNTYLHWYLQKPGQSPKLLIYKVSNRFSGVPDRFSGSGSGTDFTLKISRVEAEDLGVYFCSQSTHVPWTFGGGTKLEIK	0.16 nM	0.08 nM	
8-L17-A (antibody, V domains shown) VH: EVQLVESGGGLVQPKGSLKLSCAASGFTFNTYAMHWVRQAPGKGLEWVARIRSKSSNYARYYADSVKDRFTISRDDSQSMLYLQMNNLKTEDTAMYYCVRDHDYYGSSYWFAYWGQGTLVTVSA VL: DVVMTQTPLSLPVSLGDQASISCRSSQSLVHNNGNTYLHWYLQKPGQSPKLLIYKVSNRFSGVPDRFSGSGSGTDFTLKISRVEAEDLGVYFCSQSTHVPWTFGGGTKLEIK	0.27 nM	0.27 nM	
10-O3-A (antibody, V domains shown) VH: QVQLKESGPGLVAPSQSLSITCTVSGFSLTNYAVHWVRQSPGKGLEWLGVIWSDGRTDYNAAFISRLSISKDNSKSQVFFKMNSLQADDTAIYYCVRIEGGSYVGWYFDVWGAGTTVTVSS VL: DIQMTQSPSSLSASLGGTVTITCKASQDINKFIAWYQHKPGKGPRLLIHYTSTLQPGIPSRFSGSGSGRDYSFSISNLEPEDIATYYCLQYDNLLTFGAGTKLELK	3.47 nM		3.37 nM
9-J11-A (antibody, V domains shown) VH: QVQLQQSGAELVKPGASVKMSCMASGYTFTTYPIEWMKQIHGKSLEWIGNFHPYNDDSKYNEKFKGKATLSVEKSSSTVYLELSRSTSDDSAVYYCARGSYGPYWYFDVWGTGTTVTVSS VL: DIQMTQSPASLSASVGETVTITCRASGDIHNYLVWYQQKQGKSPQLLVYNAKALADGVPSRFSGSGSGTQYSLKINSLQPDDFGSYYCQHFWSIPYTFGGGTKLEIK	0.22 nM		0.22 nM
